Data from publication PMC3597688 (Nucleic Acids Research, 2013).
Positions count from the first letter of the chain named. Names and notes keep the numbering of the source. Values joined by “and” are separate entries in the source; they are usually repeats but may differ in a detail not shown here. Equal values may be shown once.

B1: ssoMCM F540A mutant (full length) (natural protein, Sulfolobus solfataricus, UniProt Q9UXG1 1-686, looked up)
chain: MEIPSKQIDYRDVFIEFLTTFKGNNNQNKYIERINELVAYRKKSLIIEFSDVLSFNENLAYEIINNTKIILPILEGALYDHILQLDPTYQRDIEKVHVRIVGIPRVIELRKIRSTDIGKLITIDGILVKVTPVKERIYKATYKHIHPDCMQEFEWPEDEEMPEVLEMPTICPKCGKPGQFRLIPEKTKLIDWQKAVIQERPEEVPSGQLPRQLEIILEDDLVDSARPGDRVKVTGILDIKQDSPVKRGSRAVFDIYMKVSSIEVSQKVLDEVIISEEDEKKIKDLAKDPWIRDRIISSIAPSIYGHWELKEALALALFGGVPKVLEDTRIRGDIHILIIGDPGTAKSQMLQFISRVAPRAVYTTGKGSTAAGLTAAVVREKGTGEYYLEAGALVLADGGIAVIDEIDKMRDEDRVAIHEAMEQQTVSIAKAGIVAKLNARAAVIAAGNPKFGRYISERPVSDNINLPPTILSRFDLIFILKDQPGEQDRELANYILDVHSGKSTKNIIDIDTLRKYIAYARKYVTPKITSEAKNLITDFAVEMRKKSSETPDSPILITPRQLEALIRISEAYAKMALKAEVTREDAERAINIMRLFLESVGVDMESGKIDIDTIMTGKPKSAREKMMKIIEIIDSLAVSSECAKVKDILKEAQQVGIEKSNIEKLLTDMRKSGIIYEAKPECYKKV
B2: ssoMCM G485P/G501P mutant (alpha5-linker mutant, full length) (natural protein, Sulfolobus solfataricus, UniProt Q9UXG1 1-686, looked up)
chain: B1 chain with G485P, G501P, A540F

Columns and labels:
[1] = target: the molecule itself; assay: negative-stain electron microscopy and electron tomography
[2] = target: the molecule itself; assay: SEC

Protein | stoichiometry N [1] | stoichiometry N [2]
B1 | 6 and 8 | ~3
B2 |  | ~3
